Article PMC5360445, “SMOC can act as both an antagonist and an expander of BMP signaling” (eLife, 2017)
Values belong to the molecule of their own block, whether it stands above or below them.

Assays:
[1] = target: XSMOC-1∆EC (XSMOC-1 lacking the EC domain) (Xenopus); experiment: SEC; HiLoad Superdex-200 PG, 20 mM Tris/HCl pH 7.5, 300 mM NaCl, 2 mM CaCl2, 10% glycerol; proteins refolded in the presence of 2 mM CaCl2; molecular weights calculated from elution
[2] = target: recombinant mature XSMOC-1 (Xenopus SMOC-1) (Xenopus); experiment: not stated; data not shown; in the presence of 50 mM EDTA and 1 mM nitriloacetic acid
[3] = target: recombinant mature XSMOC-1 (Xenopus SMOC-1) (Xenopus); experiment: SEC; XSMOC-1 refolded in the presence of 2 mM CaCl2, then dialysed in the presence of 10.5 mM EDTA
[4] = target: recombinant mature XSMOC-1 (Xenopus SMOC-1) (Xenopus); experiment: SEC; HiLoad Superdex-200 PG, 20 mM Tris/HCl pH 7.5, 300 mM NaCl, 2 mM CaCl2, 10% glycerol; proteins refolded in the presence of 2 mM CaCl2; molecular weights calculated from elution
[5] = target: the molecule itself; experiment: as above

stoichiometry N [1]: 2
Molecule: XSMOC-1∆EC (XSMOC-1 lacking the EC domain) (domain or fragment)

stoichiometry N [2]: 2
stoichiometry N [3]: 2
stoichiometry N [4]: 2
Molecule: recombinant mature XSMOC-1 (Xenopus SMOC-1) (natural protein)

B1: human SMOC-1 (natural protein, UniProt Q9H4F8 27-434, looked up)
chain: HRTTGPRFLISDRDPQCNLHCSRTQPKPICASDGRSYESMCEYQRAKCRDPTLGVVHRGRCKDAGQSKCRLERAQALEQAKKPQEAVFVPECGEDGSFTQVQCHTYTGYCWCVTPDGKPISGSSVQNKTPVCSGSVTDKPLSQGNSGRKDDGSKPTPTMETQPVFDGDEITAPTLWIKHLVIKDSKLNNTNIRNSEKVYSCDQERQSALEEAQQNPREGIVIPECAPGGLYKPVQCHQSTGYCWCVLVDTGRPLPGTSTRYVMPSCESDARAKTTEADDPFKDRELPGCPEGKKMEFITSLLDALTTDMVQAINSAAPTGGGRFSEPDPSHTLEERVVHWYFSQLDSNSSNDINKREMKPFKRYVKKKAKPKKCARRFTDYCDLNKDKVISLPELKGCLGVSKEGRLV
notes: human SMOC-1, construct pET28-SMOC-1-HT of Novinec et al., 2008; expected monomeric size 46.6 kDa; probably the protein without its signal peptide; also called hSMOC-1; pET28-SMOC-1-HT
stoichiometry N [5]: 2
